In data set [1] the target is T1, AGO2 D669A (UniProt Q9UKV8 1-859, D669A). The experiment in a line: hydroxyl-radical footprinting; peaks at 9-11; same at 1, 4 and 15 min; Footprinting: 18 mM HEPES pH 7.4, 100 mM KOAc, 1.2 mM Mg(OAc)2, 0.015 mg/mL BSA, 0.0015 mg/mL yeast tRNA, 0.01% IGEPAL, 8.75 mM DTT, 37 C; filter binding (titra). To be noted: protein: recombinant; tags: N-terminal 3xFLAG; label: 32P 5' end of guide; guide paired to internal site of longer target.

Data set [2] concerns the target T1, AGO2 D669A. As to the kind of experiment: hydroxyl-radical footprinting; elevated reactivity at 9-11; Footprinting: 18 mM HEPES pH 7.4, 100 mM KOAc, 1.2 mM Mg(OAc)2, 0.015 mg/mL BSA, 0.0015 mg/mL yeast tRNA, 0.01% IGEPAL, 8.75 mM DTT, 37 C; filter binding (titra). The settings on record: protein: recombinant; tags: N-terminal 3xFLAG; label: 32P 5' end of guide; complementary up to guide position 16.

T1 sequence (Q9UKV8 whole entry D669A): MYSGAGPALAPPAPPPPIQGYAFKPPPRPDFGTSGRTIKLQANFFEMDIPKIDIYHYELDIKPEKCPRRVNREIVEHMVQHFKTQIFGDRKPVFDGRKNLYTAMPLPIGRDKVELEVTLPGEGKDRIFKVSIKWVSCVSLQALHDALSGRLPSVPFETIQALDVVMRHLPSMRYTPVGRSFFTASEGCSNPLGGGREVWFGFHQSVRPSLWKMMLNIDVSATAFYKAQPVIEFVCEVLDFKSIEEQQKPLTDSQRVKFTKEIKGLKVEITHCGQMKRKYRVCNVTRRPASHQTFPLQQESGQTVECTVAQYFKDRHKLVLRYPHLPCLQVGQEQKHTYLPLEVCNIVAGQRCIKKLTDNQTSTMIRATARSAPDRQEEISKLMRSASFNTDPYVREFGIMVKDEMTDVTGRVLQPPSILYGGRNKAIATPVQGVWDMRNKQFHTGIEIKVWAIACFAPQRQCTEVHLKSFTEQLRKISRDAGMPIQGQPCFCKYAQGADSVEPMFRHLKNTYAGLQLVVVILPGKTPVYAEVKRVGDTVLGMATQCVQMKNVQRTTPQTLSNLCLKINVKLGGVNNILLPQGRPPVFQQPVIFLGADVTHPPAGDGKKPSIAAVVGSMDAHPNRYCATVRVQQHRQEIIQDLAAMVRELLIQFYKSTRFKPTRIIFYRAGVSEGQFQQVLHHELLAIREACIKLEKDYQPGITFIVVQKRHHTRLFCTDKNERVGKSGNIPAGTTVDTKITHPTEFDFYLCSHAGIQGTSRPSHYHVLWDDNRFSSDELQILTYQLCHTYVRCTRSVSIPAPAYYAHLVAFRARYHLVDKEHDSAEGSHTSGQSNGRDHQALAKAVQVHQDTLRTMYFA

B1: miR-196a guide + perfect target (dsRNA)
RNA 1: UAGGUAGUUUCAUGUUGUUGGG
RNA 2: GGGAACAACAACAACAACAACAACAACAACAACCCAACAACAUGAAACUACCUAAACAACAACAACAACA
modifications: guide 5' phosphate
As to B1, the binding result with AGO2 D669A [1] is “binds”.

B2: miR-124 guide + 16-bp target (dsRNA)
RNA 1: UAAGGCACGCGGUGAAUGCCAA
RNA 2: GGGAACAACAACAACAACAACAACAACAACAAAAUUUUUUCACCGCGUGCCUUAAACAACAACAACAACA
modifications: guide 5' phosphate
Consider B2, for which the binding result in the data set with AGO2 D669A [2] is given as “binds”.

These data come from article doi:10.1101/2023.10.15.562437, “The guide RNA sequence dictates the slicing kinetics and conformational dynamics of the Argonaute silencing complex”.
